Two substances from article PMC2581425 can be followed below.

Assay [1] concerns the target CagY-C2 (recombinant N-terminal His-tagged CagY repeat 2 motif A fragment) (Helicobacter pylori strain Q121B). In words: non-reducing SDS-PAGE; affinity-purified His-tagged protein on 15% SDS-PAGE without reducing agent, beside a reducing gel; multimers held by disulphide linkages.
For assay [2] the target is unchanged. Briefly: SEC; 26/60 Superdex 200, 20 mM Tris (pH 8.0), 200 mM NaCl, 2 mL/min; calibrated with known standards; peaks analysed by SDS-PAGE (not shown). (Size exclusion chromatography separates by hydrodynamic size, large species first.)
The target of assay [3] is CagY-C2_(C3S/C28S/C41S) (Helicobacter pylori strain Q121B). In words: non-reducing SDS-PAGE; affinity-purified His-tagged protein on 15% SDS-PAGE without reducing agent, beside a reducing gel; multimers held by disulphide linkages.

By stoichiometry N is commonly meant a count of units in the complex or per binding partner.

Values joined by “and” are separate entries in the source; they are usually repeats but may differ in a detail not shown here. Identical values can stand only once.

For “CagY-C2 (recombinant N-terminal His-tagged CagY repeat 2 motif A fragment) (domain or fragment)”, the stoichiometry N in assay [1] is 2 and 3 and 4; in assay [2], 2. In assay [3], “CagY-C2_(C3S/C28S/C41S) (domain or fragment)” had a stoichiometry N of 2.
